Source: publication doi:10.1101/2022.01.13.476167v2

How the values were obtained:
purified protein [1] = substrate: CCCCCC(=O)N[C@H]1CCOC1=O; assay: purified protein; conditions: 0.05 M phosphate buffer, pH 7.0, 35 °C
purified protein [2] = substrate: CCCCCCCC(=O)N[C@H]1CCOC1=O; assay: purified protein; conditions: 0.05 M phosphate buffer, pH 7.0, 35 °C

B1: ecPGA (Escherichia coli penicillin G acylase) (Escherichia coli) (protein)
chain 1: EQSSSEIKIVRDEYGMPHIYANDTWHLFYGYGYVVAQDRLFQMEMARRSTQGTVAEVLGKDFVKFDKDIRRNYWPDAIRAQIAALSPEDMSILQGYADGMNAWIDKVNTNPETLLPKQFNTFGFTPKRWEPFDVAMIFVGTMANRFSDSTSEIDNLALLTALKDKYGVSQGMAVFNQLKWLVNPSAPTTIAVQESNYPLKFNQQNSQTA
chain 2: SNMWVIGKSKAQDAKAIMVNGPQFGWYAPAYTYGIGLHGAGYDVTGNTPFAYPGLVFGHNGVISWGSTAGFGDDVDIFAERLSAEKPGYYLHNGKWVKMLSREETITVKNGQAETFTVWRTVHGNILQTDQTTQTAYAKSRAWDGKEVASLLAWTHQMKAKNWQEWTQQAAKQALTINWYYADVNGNIGYVHTGAYPDRQSGHDPRLPVPGTGKWDWKGLLPFEMNPKVYNPQSGYIANWNNSPQKDYPASDLFAFLWGGADRVTEIDRLLEQKPRLTADQAWDVIRQTSRQDLNLRLFLPTLQAATSGLTQSDPRRQLVETLTRWDGINLLNDDGKTWQQPGSAILNVWLTSMLKRTVVAAVPMPFDKWYSASGYETTQDGPTGSLNISVGAKILYEAVQGDKSPIPQAVDLFAGKPQQEVVLAALEDTWETLSKRYGNNVSNWKTPAMALTFRANNFFGVPQAAAEETRHQAEYQNRGTENDMIVFSPTTSDRPVLAWDVVAPGQSGFIAPDGTVDKHYEDQLKMYENFGRKSLWLTKQDVEAHKESQEVLHVQR
With B1 the Km (purified protein [1]) was 0.59 ± 0.07 mM, the kcat (purified protein [1]) was 0.0090 ± 0.0003 s⁻¹ and the Km (purified protein [2]) was 0.70 ± 0.04 mM. It also gave a kcat (purified protein [2]) of 0.0085 ± 0.0003 s⁻¹.
